Experimental data published in patent EP1096011A1, “Microbiological production method for alpha-l-aspartyl-l-phenylalanine” (Holland Sweetener Company V.o.F., priority 1999, dated 2001).

B1: Asp-Leu-His6, Asp-Leu dimodular peptide synthetase from Bacillus subtilis ATCC 21332 surfactin synthetase (srfA-B), His6-tagged (Bacillus subtilis subsp. … (protein)
chain: PNVRLSDVDLLSSAETAALLEERHMTQITEATFAALFEKQAQQTPDHSAVKAGGNLLTYRELDEQANQLAHHLRAQGAGNEDIVAIVMDRSAEVMVSILGVMKAGAAFLPIDPDTPEERIRYSLEDSGAKFAVVNERNMTAIGQYEGIIVSLDDGKWRNESKERPSSISGSRNLAYVIYTSGTTGKPKGVQIEHRNLTNYVSWFSEEAGLTENDKTVLLSSYAFDLGYTSMFPVLLGGGELHIVQKETYTAPDEIAHYIKEHGITYIKLTPSLFHTIVNTASFAKDANFESLRLIVLGGEKIIPTDVIAFRKMYGHTEFINHYGPTEATIGAIAGRVDLYEPDAFAKRPTIGRPIANAGALVLNEALKLVPPGASGQLYITGQGLARGYLNRPQLTAERFVENPYSPGSLMYKTGDVVRRLSDGTLAFIGRADDQVKIRGYRIEPKEIETVMLSLSGIQEAVVLAVSEGGLQELCAYYTSDQDIEKAELRYQLSLTLPSHMIPAFFVQVDAIPLTANGKTDRNALPKPNAAQSGGKALAAPETALEESLCRIWQKTLGIEAIGIDDNFFDLGGHSLKGMMLIANIQAELEKSVPLKALFEQPTVRQLAAYMEASAVSGGHQVLKPADKQDMYPLSSAQKRMYVLNQLDRQTISYNMPSVLLMEGELDISRLRDSLNQLVNRHESLRTSFMEANGEPVQRIIEKAEVDLHVFEAKEDEADQKIKEFIRPFDLNDAPLIRAALLRIEAKKHLLLLDMHHIIADGVSRGIFVKELALLYKGEQLPEPTLHYKDFAVWQNEAEQKERMKEHEAYWMSVLSGELPELDLPLDYARPPVQSFKGDTIRFRTGSETAKAVEKLLAETGTTLHMVLHAVFHVFLSKISGQRDIVIGSVTAGRTNADVQDMPGMFVNTLALRMEAKEQQTFAELLELAKQTNLSALEHQEYPFEDLVNQLDLPRDMSRNPLFNVMVTTENPDKEQLTLQNLSISPYEAHQGTSKFDLTLGGFTDENGIGLQLEYATDLFAKETAEKWSEYVLRLLKAVADNPNQPLSSLLLVTETEKQALLEAWKGKALPVPTDKTVHQLFEETVQRHKDRPAVTYNGQSWTYGELNAKANRLARILMDCGISPDDRVGVLTKPSLEMSAAVLGVLKAGAAFVPIDPDYPDQRIEYILQDSGAKLLLKQEGISVPDSYTGDVILLDGSRTILSLPLDENDEGNPETAVTAENLAYMIYTSGTTGQPKGVMVEHHALVNLCFWHHDAFSMTAEDRSAKYAGFGFDASIWEMFPTWTIGAELHVIDEAIRLDIVRLNDYFETNGVTITFLPTQLAEQFMELENTSLRVLLTGGDKLKRAVKKPYTLVNNYGPTENTVVATSAEIHPEEGSLSIGRAIANTRVYILGEGNQVQPEGVAGELCVAGRGLARGYLNREDETAKRFVADPFVPGERMYRTGDLVKWVNGGIEYIGRIDQQVKVRGYRIELSEIEVQLAQLSEVQDAAVTAVKDKGGNTAIAAYVTPETADIEALKSTLKETLPDYMIPAFWVTLNELPVTANGKVDRKALPEPDIEAGSGEYKAPTTDMEELLAGIWQDVLGMSEVGVTDNFFSLGGDSIKGIQMASRLNQHGWKLEMKDLFQHPTIEELTQYVERAE

Experiments:
Assay in all cases: ATP-PPi exchange reaction (amino acid activation)
[1] = system: Asp-Phe-TE-His6, hybrid Asp-Phe dipeptide synthetase with integrated srfA-C thiolation and TE domain, His6-tagged; type: biochemical, Bacillus subtilis ATCC 21332 / Bacillus brevis ATCC 8185; details: 37°C
Procedure: (§1) Specificity of amino acid activation was determined indirectly by incorporation of labelled ^32PPi into ATP during reverse reaction (Lee, S.G. & Lipmann, F.; Tyrocidine synthetase system; Methods Enzymol. 43, 1975, p.585-602). For this purpose 20 pmol of each enzyme was incubated with 1 mM amino acid, 1 mM ATP, 0,1 mM PPi, 50 mM HEPES, 100 mM NaCl and 10 mM MgCl2 and 2 mCi ^32PPi at 37°C in a total volume of 100 µL. Reactions were quenched after 10 min by adding 500 µL of a solution containing 100 mM NaPPi, 560 mM perchloric acid and 1,2% (w/v) active charcoal. The mixture was centrifuged at 13000 rpm for 1 min. The pellet was washed and resuspended twice with 1 mL H2O.
(§2) Incorporation of labelled ATP (adsorbed to the charcoal) was detected by measuring radioactivity of the precipitate. […] KM values for Asp and ATP were determined to be 3,5 mM and 0,9 mM respectively. KM values for Leu and ATP were detected to be 0,3 mM and 0,6 mM, respectively.
(§3) The KM value for Phe was determined to be about 50 µM.

[2] = system: Asp-Phe-His6, hybrid Asp-Phe dipeptide synthetase (Asp module of Bacillus subtilis ATCC 21332 srfA-B, Phe minimal module of Bacillus brevis ATCC 8185 tycA) …; type: biochemical, Bacillus subtilis ATCC 21332 / Bacillus brevis ATCC 8185; details: 37°C
Procedure: as §1, §2, §3

[3] = substrate: Nc1ncnc2c1ncn2[C@@H]1O[C@H](COP(=O)(O)OP(=O)(O)OP(=O)(O)O)[C@@H](O)[C@H]1O; type: biochemical, Bacillus subtilis ATCC 21332; details: other: ATP-PPi exchange, 37°C
Procedure: as §1, §2

[4] = substrate: N[C@@H](CC(=O)O)C(=O)O; type: biochemical, Bacillus subtilis ATCC 21332; details: other: ATP-PPi exchange, 37°C
Procedure: as §1, §2

[5] = substrate: CC(C)C[C@H](N)C(=O)O; type: biochemical, Bacillus subtilis ATCC 21332; details: other: ATP-PPi exchange, 37°C
Procedure: as §1, §2

Molecule | Km [1] | Km [2] | Km ([3]; ATP value paired with Asp (Asp activation)) | Km ([3]; ATP value paired with Leu (Leu activation)) | Km [4] | Km [5]
N[C@@H](Cc1ccccc1)C(=O)O [Phe, L-phenylalanine] | ~50 µM | ~50 µM | – | – | – | –
B1 | – | – | 900 µM | 600 µM | 3500 µM | 300 µM
